Results: patent US20080145931A1, “Mature Dendritic Cell Compositions and Methods of Culturing Same” (Argos Therapeutics, Inc., priority 2004, published 2008)
Each block holds one molecule with its values, some of them ahead of it.

Assays:
DCs [1] = experiment: IL-12p70 and IL-10 secretion by DCs undergoing maturation (ELISA of culture supernatants); assay type: cell-based, human
Method: Human PBMCs were isolated from Leukapheresis collections from healthy volunteers provided by Life Blood (Memphis, Tenn.). PBMCs were prepared by Ficoll-Histopaque density centrifugation and washed four times in PBS at room temperature. 2×10^8 PBMCs were re-suspended in 30 ml AIM-V medium and allowed to adhere to […] plastic flasks for 2 hours at 37° C. Non-adherent cells were removed and remaining cells cultured in X-VIVO 15 medium, supplemented with GM-CSF (1000 U/ml) and IL-4 (1000 U/ml), for 5-6 days at 37 C, 5% CO2.
Prior to electroporation, DCs were harvested and washed in PBS and then re-suspended in chilled Viaspane (Barr Laboratories) at 4×10^7/ml in 0.5 ml or 2.5×10^7/ml in 0.2 ml and placed on ice. DCs were mixed with mRNA (1 or 2 μg/10^6 for mRNA encoding antigen and 4 μg/10^6 for CD40L mRNA) and placed in a 4 mm gap electroporation cuvette and electroporated using Biorad apparatus. Immediately after electroporation, DCs were washed in X-VIVO 15 medium and finally re-suspended in X-VIVO 15 supplemented with GM-CSF (800 U/ml) and IL-4 (500 U/ml) at 1×10^6/ml and cultured for either 4 or 24 hours at 37° C. in low adherence six well plates (BD Biosciences, Franklin Lakes, N.J.). Additional maturation stimuli, described below, were also added at this point.
Following electroporation, DCs transfected with CD40L mRNA were treated with IFN-γ (1000 U/ml) or TNF-α (10 ng/ml) or a combination of IFN-γ and PGE2 (1 μg/ml). By comparison, immature DCs were transfected with various antigen-encoding mRNAs and were then treated with a “cytokine cocktail” comprising of TNF-α (10 ng/ml), IL-1β (10 ng/ml), IL-6 (100 ng/ml) and PGE2 (1 μg/ml) or soluble CD40L (200 ng/ml) plus enhancer (1 μg/ml) with either simultaneous or sequential addition of 1000 U/ml IFN-γ.
The method as laid out by BD Pharmingen for IL-12 and IL-10 ELISA sets (BD Pharmingen) using BD Opt EIA reagent set B pH 9.5. Briefly, ELISA plates (BD Biosciences) were coated with anti-IL-12p70 or anti-IL-10 ELISA capture antibody in coating buffer for 24 hours at 4° C. Plates underwent blocking with 200 μl per well 10% FCS/PBS for one hour prior to the addition of standards (BD Pharmingen) and supernatant samples, in duplicate, at 100 μl per well and incubated at room temperature for 2 hours. Plates were washed and anti-cytokine detection antibody added, incubated for one hour, the plates washed and solutions replaced with 100 μl of streptavidin-HRP and further incubated for one hour at room temperature. […] Plate analysis undertaken using Bio-Tek instruments ELx800 plate reader with KC junior software (Winooski, Vt.). […] Because the assays were set up so that 1 ml corresponds to 10^6 DCs, the results can also be expressed as number of picograms/10^6 DCs. […]

DCs [2] = experiment: Transwell migration assay of DCs to lymph node chemokines CCL19 and 21; assay type: cell-based, human; details: 1 μg/ml PGE2 in addition to IFN-γ, CD40L mRNA transfected DCs; FIG. 8
Method: Chemotaxis of DCs was measured by migration through a 8 μm pore size polycarbonate filter in 24 well transwell chambers (coming Costar, Acton, MA). 5% human AB serum in Iscoves modified Dulbecco's medium or AIM-V medium containing 3-300 ng/ml CCL19, 5-250 ng/ml CCL21, a combination of both or medium alone was added to the lower chamber. 1−5×10^5 DCs in 0.1 ml were added to the upper chamber and incubated for 2-3 hours at 37° C. Lower chamber harvested into 5 ml tubes (BD Biosciences) and re-suspended in 0.1 ml PBS and viable cell counts undertaken using trypan blue.

NKT-cells = experiment: Expansion of NKT-cells in PBMC cultures, CD1d/KRN7000 tetramer staining; assay type: cell-based, human; details: 100 ng/ml KRN7000 pulsed on MART-1 mRNA-loaded CD40L base process DCs, versus vehicle; FIG. 15a
Method: (§1) 100 ng/ml of KRN7000 was pulsed onto the CD40L base process DCs immediately post electroporation in combination with 500 U/ml IFN-γ and 1 μg/ml PGE2, for 24 hrs of culture.
(§2) DCs were generated as described above, employing the ‘CD40L base process’, and loaded with mRNA encoding MART-1. Post electroporation, DCs were incubated with KRN7000, IFN-γ and PGE2. DCs and PBMCs were co-cultured at a 1:10 ratio in the presence of 20 U/ml IL-2. PBMCs were restimulated three times under the same conditions, and the frequency of CTL induction determined by staining with MART-1/A2 tetramers, and the expansion of NKT-cells enumerated using KRN7000/CD1d tetramers by FACS.

MART reactive T-cells = experiment: Induction of MART-1 specific CTLs in PBMC cultures, MART-1/HLA-A2 tetramer staining; assay type: cell-based, human; details: KRN7000 pulsed on MART-1 mRNA transfected DC, versus vehicle; FIG. 15b
Method: as §1, §2

[3] = target: human CD40 (the receptor for CD40L) on monocyte-derived dendritic cells (human) (UniProt P25942); experiment: cell-based or functional assay
UniProt P25942, sequence (P25942 21-277 limits assumed): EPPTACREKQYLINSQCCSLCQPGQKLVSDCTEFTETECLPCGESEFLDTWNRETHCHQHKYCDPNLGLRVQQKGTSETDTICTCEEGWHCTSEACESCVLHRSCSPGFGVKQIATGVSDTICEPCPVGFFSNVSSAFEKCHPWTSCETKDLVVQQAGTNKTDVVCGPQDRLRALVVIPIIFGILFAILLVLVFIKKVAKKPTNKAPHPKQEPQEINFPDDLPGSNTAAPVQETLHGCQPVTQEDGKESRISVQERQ

[4] = target: human CD40L protein translated from transfected CD40L mRNA (CD40L WT, >400 nucleotide polyA tail) (human) (UniProt P29965); experiment: cell-based or functional assay

Molecule: TNF-α
IL-12 production (DCs [1]; 10 ng/ml TNF-α substituted for IFN-γ, CD40L mRNA transfected DCs, FIG. 5b): supports IL-12 production, but at reduced levels

Molecule: CCCCC[C@H](O)/C=C/[C@H]1[C@H](O)CC(=O)[C@@H]1C/C=C\CCCC(=O)O [PGE2]
DC migration (DCs [2]): enables the maturing DCs to migrate

Molecule: CCCCCCCCCCCCCCCCCCCCCCCCCC(=O)N[C@@H](CO[C@H]1O[C@H](CO)[C@H](O)[C@H](O)[C@H]1O)[C@H](O)[C@H](O)CCCCCCCCCCCCCC [KRN7000, (2S,3S,4R)-1-O-(alpha-D-galactopyranosyl)-2-(N-hexacosanoylamino)-1,3,4-octadecanetriol]
frequency of NKT-cells in PBMC cultures (NKT-cells): increase the frequency of NKT-cells | frequency of MART reactive T-cells (MART reactive T-cells): significantly increases the frequency of MART reactive T-cells

IL-12p70 (pg/ml), "Cocktail" matured and reactivated DCs co-cultured with HeLa/>400 polyA + IFN-γ [3]: 26.3 pg/mL | IL-12p70 (pg/ml), immature DCs co-cultured with HeLa/>400 polyA + IFN-γ [3]: 372 pg/mL
Molecule: human CD40L protein translated from transfected CD40L mRNA (CD40L WT, >400 nucleotide polyA tail) (from UniProt P29965 1-261) (ligand)

IL-12p70 (pg/ml), "Cocktail" matured and reactivated DCs co-cultured with HeLa/>400 polyA + IFN-γ + 24-31 [4]: 2.5 pg/mL | IL-12p70 release from CD40L-mRNA-transfected DCs cultured with IFN-γ and 10 or 50 µg/ml blocking anti-CD40L antibody [4]: 50%
Molecule: blocking CD40L monoclonal antibody 24-31 (eBioscience)

Molecule: pCR2.1 CD40L WT Delta X-E: CD40L RNA transcribed from plasmid modified by removal of XbaI-EcoRV fragment with three cryptic ATG codons (sense GCATGATCGAAACATACAACC; RNA transcript of DNA sequence, chemistry not fully specified)
induction of IL-12 expression by transfected DCs (DCs [1]; two independent DC transfection experiments, about 20 hrs post transfection, FIG. 18): performed better than the current CD40L reference standard

B1: IFN-γ: IFN-γ purchased from R&D Systems, first maturation signal (protein, listed as Homo sapiens)
chain: MKYTSYILAFQLCIVLGSLGCYCQDPYVKEAENLKKYFNAGHSDVADNGTLFLGILKNWKEESDRKIMQSQIVSFYFKLFKNFKDDQSIQKSVETIKEDMNVKFFNSNKKKRDDFEKLTNYSVTDLNVQRKAIHELIQVMAELSPAAKTGKRKRSQMLFQGRRASQ
IFN-γ required to support optimal induction of IL-12p70 (DCs [1]; DCs transfected with 4 μg CD40L mRNA per million cells, FIG. 4): at least 100 U/ml | IL-10 production (DCs [1]; IFN-γ versus TNF-α as co-maturation factor, CD40L mRNA transfected DCs, FIG. 5c): lower levels of IL-10 production than does TNF-α
